Where “and” joins values, the source holds several entries; their conditions need not be identical. Identical values can stand only once.
Assays:
[1] = target: T1, NMR invisible oligomeric species of Aβ (1–40) (Homo sapiens, UniProt P05067); assay: 15N-R2 and 1HN-R2 transverse relaxation; type: binding
[2] = target: T1, NMR invisible oligomeric species of Aβ (1–40); type: binding
[3] = target: ^15N-labeled Aβ(1–40) (Homo sapiens, UniProt P05067); assay: Intermolecular paramagnetic relaxation enhancement; type: binding
[4] = Dynamic light scattering / transmission EM of equilibrated samples; type: physicochemical; settings: equilibrated 150 and 300 µM samples
[5] = 150 µM total; 50 mM HEPES, pH 6.8, 10°C

T1 sequence (P05067 672-711 limits assumed): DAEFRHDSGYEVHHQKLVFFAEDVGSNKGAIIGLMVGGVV
^15N-labeled Aβ(1–40), sequence (P05067 672-711 limits assumed): as above

| Substance | konapp (apparent first order rate constant, monomer to oligomer) ([1]; 300 µM total, pH 6.8, 10°C) | 1HN-R1 of monomer ([1]; Aβ(1–40) monomer, 10°C) [s⁻¹] | timescale of monomer-oligomer dynamic equilibrium [2] [ms] | fraction of oligomers ([2]; 60 µM) | effect of off-resonance saturation pulse on amide signal intensity ([2]; 60 µM, until pulse approaches resonances of the protein) | effect of CW pulse far off-resonance on amide resonances ([2]; 300 µM, RF 180 and 350 Hz) | fraction of peptide within dark oligomeric state exchanging with free monomer ([2]; abstract, concentration not specified) | peptides within the oligomer undergoing exchange with free monomer, 1 in about N ([2]; from fex) | mobility of N-terminal 9 residues upon association with oligomer ([2]; from regional specificity of ΔR2) | population of lower order, transient, self-associated states ([3]; if present, or exchange is slow on the PRE time scale (< ca. 1 ms)) | presence of aggregates by dynamic light scattering [4] | morphology by transmission EM ([4]; negatively stained, >3 weeks) | monomer concentration at pseudo-equilibrium [5] [µM] | intermolecular PREs, in words ([3]; 100 µM U-[15N]-Aβ(1–40) + 170 µM spin-labeled F20C variant) |
| --- | --- | --- | --- | --- | --- | --- | --- | --- | --- | --- | --- | --- | --- | --- |
| Aβ(1–40): amyloid β (Aβ) peptide (1–40), uniformly 15N-labeled, prepared from NaOH treated stocks to remove fibril seeds | 3.1 s^−1 and ~ 3 s^−1 | 1 | 10 to 15 | negligible | no effect on the signal intensity of the amide resonances | uniformly attenuated | ~ 3% | about 30 | remain highly mobile | 1–2% | presence of large polydisperse aggregates was confirmed | elongated morphologically disordered non-fibrillar aggregates with possibly some small needle-like fibrils present | 105 |  |
| F20C: single-cysteine variant Aβ(1–40), F20C mutation in the center of the peptide, conjugated to a nitroxide spin-label or a diamagnetic analogue |  |  |  |  |  |  |  |  |  |  |  |  |  | essentially no intermolecular PREs were observed |

— paper PMC2915839 (Journal of the American Chemical Society, 2010)
